Measurements taken from US20200069813A1 (S M DISCOVERY GROUP, published 2020).
Where no end group is shown, it is not given here. 5‑FAM = fluorescein amidite

Legend:
[1] = target: T1, transferrin receptor (TFRC) (human, UniProt P02786 1-760); test: Uptake by hCMEC/D3 cells after TFRC siRNA knock-down, FACS and fluorescence microscopy
T1 construct: whole, on cells; Endogenous receptor on hCMEC/D3 cells; No purified receptor was used
Description: Cell nucleus stained with Hoechest 33342, Insert bars=50 μm.
The commercial transfection reagent siPORT Amine/TFRC siRNA complex was incubated for 72 h in hCMEC/D3 cells including an unspecific siRNA (siControl) as control.

[2] = target: T2, receptor for advanced glycation end products (RAGE) (human, UniProt Q15109 23-404); test: Uptake by hCMEC/D3 cells after RAGE siRNA knock-down, FACS and fluorescence microscopy
T2 construct: whole, on cells; Endogenous receptor on hCMEC/D3 cells; No purified receptor was used; also called RAGE receptor
T2 sequence (Q15109 23-404): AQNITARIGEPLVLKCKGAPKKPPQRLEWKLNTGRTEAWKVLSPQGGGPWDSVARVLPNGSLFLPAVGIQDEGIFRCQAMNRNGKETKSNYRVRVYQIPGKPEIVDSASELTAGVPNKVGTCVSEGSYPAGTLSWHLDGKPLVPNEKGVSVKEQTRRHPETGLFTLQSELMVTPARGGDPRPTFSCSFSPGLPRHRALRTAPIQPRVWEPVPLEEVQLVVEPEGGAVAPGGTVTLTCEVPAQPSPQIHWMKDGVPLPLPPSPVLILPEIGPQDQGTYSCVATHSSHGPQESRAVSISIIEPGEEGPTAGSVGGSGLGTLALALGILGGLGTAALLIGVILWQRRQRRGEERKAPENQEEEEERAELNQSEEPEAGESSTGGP

T1 sequence (P02786 whole entry): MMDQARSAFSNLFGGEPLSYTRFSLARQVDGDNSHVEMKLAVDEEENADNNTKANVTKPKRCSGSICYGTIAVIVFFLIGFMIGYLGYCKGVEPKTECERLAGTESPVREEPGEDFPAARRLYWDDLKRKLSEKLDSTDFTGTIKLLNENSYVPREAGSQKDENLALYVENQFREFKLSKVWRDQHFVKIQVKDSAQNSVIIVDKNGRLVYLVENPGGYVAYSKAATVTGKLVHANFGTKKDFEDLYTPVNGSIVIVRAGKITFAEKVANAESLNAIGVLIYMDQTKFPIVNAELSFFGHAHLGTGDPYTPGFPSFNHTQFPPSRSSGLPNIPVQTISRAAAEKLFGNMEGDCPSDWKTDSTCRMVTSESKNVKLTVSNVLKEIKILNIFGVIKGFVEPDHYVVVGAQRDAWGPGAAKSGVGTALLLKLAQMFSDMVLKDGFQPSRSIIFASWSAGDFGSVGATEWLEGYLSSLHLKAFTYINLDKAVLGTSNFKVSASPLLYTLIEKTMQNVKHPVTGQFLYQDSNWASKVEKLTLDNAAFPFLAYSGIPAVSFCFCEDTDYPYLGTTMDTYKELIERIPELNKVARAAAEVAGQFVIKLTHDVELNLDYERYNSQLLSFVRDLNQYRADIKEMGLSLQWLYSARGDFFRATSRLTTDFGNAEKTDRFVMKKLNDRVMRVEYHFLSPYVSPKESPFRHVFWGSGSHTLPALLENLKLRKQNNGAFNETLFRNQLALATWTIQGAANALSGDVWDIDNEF

binding result [1]: binds | binding result [2]: binds
B1: FAM-CGY peptide (5-FAM-Cys-Gly-Tyr-Arg-Pro-Val-His-Asn-Ile-Arg-Gly-His-Trp-Ala-Pro-Gly) (peptide)
peptide: {5‑FAM}-CGYRPVHNIRGHWAPG
modifications: also: forms assemblies with intermolecular Cys disulfides
notes: Synthetic peptide conjugate; also called FAM-CGY nanoparticles; FAM-CGY peptidic nanoparticles
